Measured values as given in PMC4624963, “Enzymatic Characterization of Recombinant Food Vacuole Plasmepsin 4 from the Rodent Malaria Parasite Plasmodium berghei” (PLoS ONE, 2015).
Where no end group is shown, it is not given here. [ ]: non-standard residue; d: D form. Nle = CCCC[C@H](N)C(=O)O

What was measured:
Settings in all cases: both partners purified
[1] = target: T1, plasmepsin 4 from Plasmodium falciparum (Plasmodium falciparum, UniProt Q8IM16 122-449); experiment: enzyme inhibition kinetics (Ki of competitive inhibition); initial cleavage velocities of a chromogenic peptide substrate at varied inhibitor concentration; plasmepsins pre-incubated in 100 mM sodium formate pH 4.5, 37°C, 5 min to convert zymogen to mature enzyme
T1 construct: also called PfPM4; source: zymogen converted to mature enzyme at pH 4.5, 37°C, 5 min

[2] = target: T2, plasmepsin 2 from Plasmodium falciparum (Plasmodium falciparum, UniProt P46925 125-453); experiment: as above
T2 construct: also called PfPM2; source: zymogen converted to mature enzyme at pH 4.5, 37°C, 5 min

[3] = target: T3, plasmepsin 1 from Plasmodium falciparum (Plasmodium falciparum, UniProt P39898 124-452); experiment: enzyme inhibition kinetics (Ki of competitive inhibition); initial cleavage velocities of a chromogenic peptide substrate at varied inhibitor concentration; mature PfPM1 pre-incubated in 100 mM sodium citrate pH 5.5, 37°C, 3 min
T3 construct: also called PfPM1

[4] = target: T4, mature plasmepsin 4 of Plasmodium berghei (PbPM4), auto-matured from semi-proPbPM4 (Plasmodium berghei ANKA); experiment: enzyme inhibition kinetics (Ki of competitive inhibition); initial cleavage velocities of a chromogenic peptide substrate at varied inhibitor concentration, spectrophotometric; proPbPM4 pre-incubated in 100 mM sodium citrate pH 5.0, 37°C, 5 min; tight-binding or non-tight-binding competitive fit
T4 construct: also called mature PbPM4; FV plasmepsin 4; source: converted to mature enzyme by 5 min pre-incubation in sodium citrate pH 5.0 at 37°C

B1: compound 1 (KPYEFΨRQF), peptidomimetic inhibitor designed for PbPM4 (peptide)
peptide: KPYEFRQF
modifications: not fully specified (residue 5); printed as KPYEFΨRQF; also: Ψ pseudo-peptide bond between F5 and R6
notes: source: synthetic peptide
**Q.** Which results are given for B1?
**A.** Ki [1]: 190 ± 19 nM; Ki [2]: 35000 nM; Ki [3]: > 100000 nM

**Q.** With KP[Nle]S[Nle]LQI (also: reduced amide Ψ[CH2-NH] between Nle5 and Leu6) [compound 3 (KPnLSnLΨLQI), peptidomimetic inhibitor designed for PfPM2] as the binder, how does the Ki [4] read?
**A.** The Ki was 375 ± 54 nM.
